Reference: US9844563B2, “Compositions, kits, and methods to induce acquired cytoresistance using stress protein inducers” (FRED HUTCHINSON CANCER RESEARCH CENTER, priority 2014, dated 2017)
Values joined by “and” are separate entries in the source; they are usually repeats but may differ in a detail not shown here. Identical values can stand only once.

Experiments:
Haptoglobin = Haptoglobin protein expression after SQ myoglobin with or without PEG; format: in vivo, mice; details: 4 hour time point after SQ injection
Experimental: Myoglobin+PEG: To a stock solution of 20 mg/ml Mgb in PBS was added 100 mg/ml of PEG-6000; […]. This was administered as a subcutaneous injection in the dorsal neck (250 ul total injection). For combined Mgb/PEG+SnPP, SnPP was added to the above in a concentration of 3 mg/ml.

HK-2 cells = experiment: HK-2 cell injury by MTT assay; format: cell-based; details: 10 mg/mL, 18 hr incubation, compared to control incubated cells
Experimental: HK-2 cells (a proximal tubule cell line derived from normal human kidney) were incubated in keratinocyte serum free medium either under normal (control) conditions or in the presence of 10 mg/mL horse skeletal muscle myoglobin or nitrited myoglobin (produced by equimolar Na nitrite addition to 10 mg/ml myoglobin). After 18 hr incubations, the severity of cell injury (% cell death) was assessed by MTT assay. Myoglobin induced 40% cell death (40% decrease in MTT cell uptake), compared to control incubated cells. Nitrite binding to myoglobin reduced cell death by 75%. Thus, nitrite binding is able to reduce myoglobin's cytotoxic effects.

HO-1 = experiment: Renal cortical HO-1 protein (ELISA) after IV myoglobin, SnPP or both; format: in vivo, mice; details: 1 mg Myoglobin, 1 μmole SnPP
Text: (§1) The Glycerol Model of AKI. This is a widely used model of rhabdomyolysis-induced AKI that has been employed worldwide for 50 years. The model was used to test whether prophylactic interventions confer protection against AKI. Basically, the protocol is as follows: Male CD-1 mice (35-45 grams), obtained from Charles River Laboratories, Wilmington, Mass. were studied. Mice were maintained under standard vivarium conditions and generally housed for 1-3 weeks prior to study. The mice were placed in a cylindrical restraining cage, and then were given a tail vein injection of the test substances (see below) or test substance vehicle. The mice were then returned to their cages. Eighteen hours (hrs) later, the mice were briefly anesthetized by isoflurane inhalation, and given an intramuscular injection of hypertonic (50%) glycerol in a dose of 9 ml/Kg body weight. The dose is divided in two, with half injected into the muscle of each of the hind limbs. The mice were then returned to their cages. Eighteen hrs later, the mice were deeply anesthetized with pentobarbital (50-100 mg/Kg), the abdominal cavity was opened through a midline abdominal incision, a blood sample was obtained from the abdominal vena cava and the kidneys were resected. A kidney cross section was obtained and fixed in formalin for subsequent histologic analysis. The terminal blood samples were analyzed for BUN and creatinine, using commercially available assay kits. The remaining kidney tissue was subjected to cortical dissection, and the cortical tissues were then extracted for protein and RNA. The protein samples were saved for analysis of HO-1 levels, and the RNA samples were subjected to RT-PCR to quantify HO-1 mRNA as well as levels of other stress gene mRNAs (e.g. NGAL, haptoglobin, hemopexin, hepicidin).
(§2) Myoglobin+SnPP: To 5 mg of dry myoglobin was added 0.9 ml of PBS+0.1 ml of a stock SnPP solution (50 umole/ml). The resulting final concentrations were 5 mg/ml myoglobin+5 umoles/ml of SnPP. The tail vein was injected with 200 ul of this solution, which equals 1 mg myoglobin+1 umole SnPP. […]
Four hr post myoglobin vs myoglobin+SnPP vs SnPP alone experiments. To confirm that the myoglobin+SnPP has a synergistic effect in inducing HO-1 mRNA and HO-1 protein levels, each of the above combinations have been administered alone via tail vein injection. […] For additional information regarding methods, see Zager et al., Am J Physiol Renal Physiol. 2014 Jul. 30. Pii.

HO-1 mRNA = experiment: Renal cortical HO-1 mRNA (RT-PCR) after IV myoglobin, SnPP or both; format: in vivo, mice
Text: as §1, §2
Four hr post myoglobin vs myoglobin+SnPP vs SnPP alone experiments. To confirm that the myoglobin+SnPP has a synergistic effect in inducing HO-1 mRNA and HO-1 protein levels, each of the above combinations have been administered alone via tail vein injection. Four hrs later, the mice were sacrificed as noted above and the kidneys were harvested for assessment of HO-1 mRNA and protein levels. For additional information regarding methods, see Zager et al., Am J Physiol Renal Physiol. 2014 Jul. 30. Pii.

[1] = design: species or system mice; details: mouse, in vivo, iv

B1: myoglobin (protein, listed as Homo Sapiens)
chain: MGLSDGEWQLVLNVWGKVEADIPGHGQEVLIRLFKGHPETLEKFDKFKHLKSEDEMKASEDLKKHGATVLTALGGILKKKGHHEAEIKPLAQSHATKHKIPVKYLEFISECIIQVLQSKHPGDFGADAQGAMNKALELFRKDMASNYKELGFQG
notes: Lyophilized horse skeletal muscle myoglobin (Sigma Chemicals) used as the test agent
Haptoglobin Protein Expression (Haptoglobin): 32.7 ± 6.3 ng/mg protein | cell death (decrease in MTT cell uptake) (HK-2 cells): 40% | HO-1 Protein Expression (by ELISA), Average (HO-1; Cortex, 4 hr IV, average): 45.4 ng HO-1/mg protein | HO-1 Protein Expression (by ELISA), individual mice (HO-1; Cortex, 4 hr IV, single animals): 36.0 ng HO-1/mg protein and 40.7 ng HO-1/mg protein and 40.2 ng HO-1/mg protein and 64.7 ng HO-1/mg protein | HO-1 protein induction overnight post injection, Average (HO-1; Ovnt (roughly 18 hrs) IV, average, in ng/mg protein): 36.7 | HO-1 protein induction overnight post injection, individual subjects (HO-1; Ovnt (roughly 18 hrs) IV, single animals, in ng/mg protein): 50.6 and 34.9 and 24.6 | HO-1 mRNA induction (HO-1/GAPDH mRNA), Average (HO-1 mRNA; 4 hrs post IV injection, average): 3.93 HO-1/GAPDH mRNA | HO-1 mRNA induction (HO-1/GAPDH mRNA), individual mice (HO-1 mRNA; 4 hrs post IV injection, single animals): 7.78 HO-1/GAPDH mRNA and 2.93 HO-1/GAPDH mRNA and 2.58 HO-1/GAPDH mRNA and 2.41 HO-1/GAPDH mRNA | HO-1 mRNA induction overnight post injection, Average (HO-1 mRNA; Ovnt (roughly 18 hrs) IV, 1 mg Myoglobin, 1 μmole SnPP, average): 0.58 HO-1/GAPDH mRNA | HO-1 mRNA induction overnight post injection, individual subjects (HO-1 mRNA; Ovnt (roughly 18 hrs) IV, 1 mg Myoglobin, 1 μmole SnPP, single animals): 0.71 HO-1/GAPDH mRNA and 0.53 HO-1/GAPDH mRNA and 0.51 HO-1/GAPDH mRNA | Plasma LDH, Average [1]: 4.47 Absorbance U LDH/ml
